Source: article PMC11535040, “Requirement of Nek2a and cyclin A2 for Wapl-dependent removal of cohesin from prophase chromatin” (The EMBO Journal, 2024)

Molecular target: T1, Flag-tagged Pds5b-Ser1177,1182,1209Ala (3A) phosphorylated by Cdk1/2-cyclin A2 (human, UniProt Q9NTI5 1-1447, Ser1177,1182,1209Ala | Ser1177,1182,1209Ala | Ser1177,1182,1209Ala, phosphoserine at 1161 and 1166 (by Cdk1/2-cyclin A2))
T1 construct: Pds5b, human; also called Pds5b-3A
T1 sequence (looked up): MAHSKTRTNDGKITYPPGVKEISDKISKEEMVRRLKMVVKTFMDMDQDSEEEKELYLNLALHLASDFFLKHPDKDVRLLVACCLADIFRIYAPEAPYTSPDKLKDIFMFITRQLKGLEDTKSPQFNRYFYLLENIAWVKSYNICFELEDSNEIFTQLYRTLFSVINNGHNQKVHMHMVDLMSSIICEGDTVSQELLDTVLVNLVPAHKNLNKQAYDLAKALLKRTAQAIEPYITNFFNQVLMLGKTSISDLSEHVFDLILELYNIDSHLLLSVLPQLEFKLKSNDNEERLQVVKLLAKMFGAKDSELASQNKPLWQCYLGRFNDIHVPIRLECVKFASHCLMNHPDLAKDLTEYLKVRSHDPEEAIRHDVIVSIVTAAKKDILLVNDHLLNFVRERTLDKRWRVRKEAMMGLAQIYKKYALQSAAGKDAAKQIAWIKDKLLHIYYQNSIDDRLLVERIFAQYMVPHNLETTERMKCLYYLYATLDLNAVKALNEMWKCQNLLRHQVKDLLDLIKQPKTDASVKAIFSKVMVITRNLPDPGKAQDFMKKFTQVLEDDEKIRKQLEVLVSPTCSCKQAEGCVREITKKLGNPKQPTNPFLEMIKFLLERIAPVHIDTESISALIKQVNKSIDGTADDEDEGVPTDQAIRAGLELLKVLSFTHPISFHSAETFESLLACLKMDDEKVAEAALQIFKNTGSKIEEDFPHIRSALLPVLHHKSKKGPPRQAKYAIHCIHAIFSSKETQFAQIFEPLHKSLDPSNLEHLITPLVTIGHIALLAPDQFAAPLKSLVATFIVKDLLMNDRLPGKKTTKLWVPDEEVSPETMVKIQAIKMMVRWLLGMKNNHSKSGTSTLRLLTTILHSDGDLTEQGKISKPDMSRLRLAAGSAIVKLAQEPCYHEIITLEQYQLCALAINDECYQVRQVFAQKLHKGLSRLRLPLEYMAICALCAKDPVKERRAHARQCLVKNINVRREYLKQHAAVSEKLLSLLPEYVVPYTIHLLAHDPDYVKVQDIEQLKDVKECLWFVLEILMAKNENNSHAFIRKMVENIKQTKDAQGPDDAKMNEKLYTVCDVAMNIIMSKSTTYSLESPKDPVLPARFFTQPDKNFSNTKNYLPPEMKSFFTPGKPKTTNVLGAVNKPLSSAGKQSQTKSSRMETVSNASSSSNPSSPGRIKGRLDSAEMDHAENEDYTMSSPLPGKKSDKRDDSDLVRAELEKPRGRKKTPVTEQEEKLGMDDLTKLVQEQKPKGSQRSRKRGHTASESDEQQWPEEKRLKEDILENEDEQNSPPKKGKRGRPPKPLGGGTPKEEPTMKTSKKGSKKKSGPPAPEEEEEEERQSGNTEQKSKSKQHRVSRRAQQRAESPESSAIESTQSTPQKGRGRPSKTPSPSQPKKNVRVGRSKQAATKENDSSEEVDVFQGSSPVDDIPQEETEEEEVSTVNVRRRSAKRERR
Assay: pull-down; Flag-Pds5b variants affinity-purified from Nek2a- and cyclin A2-free prometaphase cells, incubated on the beads with recombinant Nek2a and/or Cdk1/2-cyclin A2 and ATP, washed, then incubated with recombinant Wapl (2 µl) and sororin (0.3 µg) in 15 µl cleavage buffer without ATP, 20 min at 37 °C; immunoblotting
Settings: both partners purified

- binding result: binds
B1: recombinant human Wapl (natural protein, UniProt Q7Z5K2 1-1190, looked up)
chain: MTSRFGKTYSRKGGNGSSKFDEVFSNKRTTLSTKWGETTFMAKLGQKRPNFKPDIQEIPKKPKVEEESTGDPFGFDSDDESLPVSSKNLAQVKCSSYSESSEAAQLEEVTSVLEANSKISHVVVEDTVVSDKCFPLEDTLLGKEKSTNRIVEDDASISSCNKLITSDKVENFHEEHEKNSHHIHKNADDSTKKPNAETTVASEIKETNDTWNSQFGKRPESPSEISPIKGSVRTGLFEWDNDFEDIRSEDCILSLDSDPLLEMKDDDFKNRLENLNEAIEEDIVQSVLRPTNCRTYCRANKTKSSQGASNFDKLMDGTSQALAKANSESSKDGLNQAKKGGVSCGTSFRGTVGRTRDYTVLHPSCLSVCNVTIQDTMERSMDEFTASTPADLGEAGRLRKKADIATSKTTTRFRPSNTKSKKDVKLEFFGFEDHETGGDEGGSGSSNYKIKYFGFDDLSESEDDEDDDCQVERKTSKKRTKTAPSPSLQPPPESNDNSQDSQSGTNNAENLDFTEDLPGVPESVKKPINKQGDKSKENTRKIFSGPKRSPTKAVYNARHWNHPDSEELPGPPVVKPQSVTVRLSSKEPNQKDDGVFKAPAPPSKVIKTVTIPTQPYQDIVTALKCRREDKELYTVVQHVKHFNDVVEFGENQEFTDDIEYLLSGLKSTQPLNTRCLSVISLATKCAMPSFRMHLRAHGMVAMVFKTLDDSQHHQNLSLCTAALMYILSRDRLNMDLDRASLDLMIRLLELEQDASSAKLLNEKDMNKIKEKIRRLCETVHNKHLDLENITTGHLAMETLLSLTSKRAGDWFKEELRLLGGLDHIVDKVKECVDHLSRDEDEEKLVASLWGAERCLRVLESVTVHNPENQSYLIAYKDSQLIVSSAKALQHCEELIQQYNRAEDSICLADSKPLPHQNVTNHVGKAVEDCMRAIIGVLLNLTNDNEWGSTKTGEQDGLIGTALNCVLQVPKYLPQEQRFDIRVLGLGLLINLVEYSARNRHCLVNMETSCSFDSSICSGEGDDSLRIGGQVHAVQALVQLFLERERAAQLAESKTDELIKDAPTTQHDKSGEWQETSGEIQWVSTEKTDGTEEKHKKEEEDEELDLNKALQHAGKHMEDCIVASYTALLLGCLCQESPINVTTVREYLPEGDFSIMTEMLKKFLSFMNLTCAVGTTGQKSISRVIEYLEHC
notes: Wapl, human; insert by PCR on human cDNA; Isolated from mitotically arrested cells; also called GFP-SUMOstar-Wapl; source: Hek293T, transiently transfected, taxol-arrested; not shown: GFP, N-terminal, cleaved; SUMOstar, N-terminal, cleaved
